Target: T1, FLT3 as expressed on cells (NALM16 cells, FLT3+) (human, UniProt P36888 27-993)
T1 construct: whole, on cells; Endogenous FLT3 of a human leukemia cell line; also called Nalm16 cells expressing FLT3
T1 sequence (looked up): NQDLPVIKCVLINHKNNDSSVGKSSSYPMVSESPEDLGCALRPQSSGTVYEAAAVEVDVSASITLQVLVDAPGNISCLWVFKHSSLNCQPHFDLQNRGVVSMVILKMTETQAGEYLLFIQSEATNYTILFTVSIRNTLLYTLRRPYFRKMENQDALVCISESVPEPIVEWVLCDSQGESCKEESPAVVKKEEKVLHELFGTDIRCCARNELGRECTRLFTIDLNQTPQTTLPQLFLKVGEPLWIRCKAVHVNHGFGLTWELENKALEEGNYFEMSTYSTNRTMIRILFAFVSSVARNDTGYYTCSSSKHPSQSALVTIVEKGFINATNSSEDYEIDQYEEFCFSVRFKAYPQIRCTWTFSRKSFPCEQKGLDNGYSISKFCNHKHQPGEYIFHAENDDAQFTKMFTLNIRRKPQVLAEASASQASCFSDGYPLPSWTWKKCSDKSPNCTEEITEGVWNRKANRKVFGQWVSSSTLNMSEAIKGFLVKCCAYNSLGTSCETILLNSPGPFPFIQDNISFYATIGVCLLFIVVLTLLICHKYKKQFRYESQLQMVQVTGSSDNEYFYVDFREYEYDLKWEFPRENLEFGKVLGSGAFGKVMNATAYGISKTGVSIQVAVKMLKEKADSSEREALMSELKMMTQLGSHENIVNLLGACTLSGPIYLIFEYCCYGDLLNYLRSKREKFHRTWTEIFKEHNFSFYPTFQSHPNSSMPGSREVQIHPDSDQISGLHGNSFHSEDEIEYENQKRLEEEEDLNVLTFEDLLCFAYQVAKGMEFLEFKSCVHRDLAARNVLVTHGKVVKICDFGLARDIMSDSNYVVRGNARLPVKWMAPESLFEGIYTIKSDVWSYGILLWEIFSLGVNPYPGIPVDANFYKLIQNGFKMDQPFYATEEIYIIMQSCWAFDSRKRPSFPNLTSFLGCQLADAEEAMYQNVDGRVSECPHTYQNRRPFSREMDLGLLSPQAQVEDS
Assay: flow cytometry on FLT3+ NALM16 cells; value told of the FLT3 binding part shared by V6 to V9

Row | Binder | EC50 [nM]
1 | V6-V8 (CC-2 variant, parental 4G8 FLT3 domain with UCHT1 CD3 scFv variant V8) (bispecific antibody, human IgG1, kappa, IgGsc format, Fc-attenuated) heavy: QVQLQQPGAELVKPGASLKLSCKSSGYTFTSYWMHWVRQRPGHGLEWIGEIDPSDSYKDYNQKFKDKATLTVDRSSNTAYMHLSSLTSDDSAVYYCARAITTTPFDFWGQGTTLTVSSASTKGPSVFPLAPSSKSTSGGTAALGCLVKDYFPEPVTVSWNSGALTSGVHTFPAVLQSSGLYSLSSVVTVPSSSLGTQTYICNVNHKPSNTKVDKKVEPKSCDKTHTCPPCPAPPVAGPSVFLFPPKPKDTLMISRTPEVTCVVVGVSHEDPEVKFNWYVDGVEVHNAKTKPREEQYNSTYRVVSVLTVLHQDWLNGKEYKCKVSNKQLPSPIEKTISKAKGQPREPQVYTLPPSRDELTKNQVSLTCLVKGFYPSDIAVEWESNGQPENNYKTTPPVLDSDGSFFLYSKLTVDKSRWQQGNVFSCSVMHEALHNHYTQKSLSLSPGKSGDIQMTQSPSSLSASVGDRVTITCRASQDIRNYLNWYQQKPGKAPKLLIYYTSRLESGVPSRFSGSGSGTDYTLTISSLQPEDFATYYCQQGNTLPWTFGQGTKVEIKGGGGSGGGGSGGGGSEVQLVESGGGLVQPGGSLRLSCAASGYSFTGYTMNWVRQAPGKGLEWVALINPYKGVSTYNQKFKDRFTISVDDSKNTAYLQMNSLRAEDTAVYYCARSGYYGDSDWYFDVWGQGTLVTVSS light: DIVLTQSPATLSVTPGDSVSLSCRASQSISNNLHWYQQKSHESPRLLIKYASQSISGIPSRFSGSGSGTDFTLSINSVETEDFGVYFCQQSNTWPYTFGGGTKLEIKRTVAAPSVFIFPPSDEQLKSGTASVVCLLNNFYPREAKVQWKVDNALQSGNSQESVTEQDSKDSTYSLSSTLTLSKADYEKHKVYACEVTHQGLSSPVTKSFNRGEC | ~1
2 | V6-V9 (CC-2 variant, parental 4G8 FLT3 domain with UCHT1 CD3 scFv variant V9) (bispecific antibody, human IgG1, kappa, IgGsc format, Fc-attenuated) heavy: QVQLQQPGAELVKPGASLKLSCKSSGYTFTSYWMHWVRQRPGHGLEWIGEIDPSDSYKDYNQKFKDKATLTVDRSSNTAYMHLSSLTSDDSAVYYCARAITTTPFDFWGQGTTLTVSSASTKGPSVFPLAPSSKSTSGGTAALGCLVKDYFPEPVTVSWNSGALTSGVHTFPAVLQSSGLYSLSSVVTVPSSSLGTQTYICNVNHKPSNTKVDKKVEPKSCDKTHTCPPCPAPPVAGPSVFLFPPKPKDTLMISRTPEVTCVVVGVSHEDPEVKFNWYVDGVEVHNAKTKPREEQYNSTYRVVSVLTVLHQDWLNGKEYKCKVSNKQLPSPIEKTISKAKGQPREPQVYTLPPSRDELTKNQVSLTCLVKGFYPSDIAVEWESNGQPENNYKTTPPVLDSDGSFFLYSKLTVDKSRWQQGNVFSCSVMHEALHNHYTQKSLSLSPGKSGEVQLVESGGGLVQPGGSLRLSCAASGYSFTGYTMNWVRQAPGKGLEWVALINPYKGVSTYNQKFKDRFTISVDKSKNTAYLQMNSLRAEDTAVYYCARSGYYGDSDWYFDVWGQGTLVTVSSGGGGSGGGGSGGGGSDIQMTQSPSSLSASVGDRVTITCRASQDIRNYLNWYQQKPGKAPKLLIYYTSRLESGVPSRFSGSGSGTDYTLTISSLQPEDFATYYCQQGNTLPWTFGQGTKVEIK light: DIVLTQSPATLSVTPGDSVSLSCRASQSISNNLHWYQQKSHESPRLLIKYASQSISGIPSRFSGSGSGTDFTLSINSVETEDFGVYFCQQSNTWPYTFGGGTKLEIKRTVAAPSVFIFPPSDEQLKSGTASVVCLLNNFYPREAKVQWKVDNALQSGNSQESVTEQDSKDSTYSLSSTLTLSKADYEKHKVYACEVTHQGLSSPVTKSFNRGEC | ~1
3 | V6-V7 (CC-2 variant, parental 4G8 FLT3 domain with UCHT1 CD3 scFv variant V7) (bispecific antibody, human IgG1, kappa, IgGsc format, Fc-attenuated) heavy: QVQLQQPGAELVKPGASLKLSCKSSGYTFTSYWMHWVRQRPGHGLEWIGEIDPSDSYKDYNQKFKDKATLTVDRSSNTAYMHLSSLTSDDSAVYYCARAITTTPFDFWGQGTTLTVSSASTKGPSVFPLAPSSKSTSGGTAALGCLVKDYFPEPVTVSWNSGALTSGVHTFPAVLQSSGLYSLSSVVTVPSSSLGTQTYICNVNHKPSNTKVDKKVEPKSCDKTHTCPPCPAPPVAGPSVFLFPPKPKDTLMISRTPEVTCVVVGVSHEDPEVKFNWYVDGVEVHNAKTKPREEQYNSTYRVVSVLTVLHQDWLNGKEYKCKVSNKQLPSPIEKTISKAKGQPREPQVYTLPPSRDELTKNQVSLTCLVKGFYPSDIAVEWESNGQPENNYKTTPPVLDSDGSFFLYSKLTVDKSRWQQGNVFSCSVMHEALHNHYTQKSLSLSPGKSGDIQMTQSPSSLSASVGDRVTITCRASQDIRNYLNWYQQKPGKAPKLLIYYTSRLESGVPSRFSGSGSGTDYTLTISSLQPEDFATYYCQQGNTLPWTFGQGTKVEIKGGGGSGGGGSGGGGSEVQLVESGGGLVQPGGSLRLSCAASGYSFTGYTMNWVRQAPGKGLEWVALINPYKGVSTYADSFKGRFTISVDDSKNTAYLQMNSLRAEDTAVYYCARSGYYGDSDWYFDVWGQGTLVTVSS light: DIVLTQSPATLSVTPGDSVSLSCRASQSISNNLHWYQQKSHESPRLLIKYASQSISGIPSRFSGSGSGTDFTLSINSVETEDFGVYFCQQSNTWPYTFGGGTKLEIKRTVAAPSVFIFPPSDEQLKSGTASVVCLLNNFYPREAKVQWKVDNALQSGNSQESVTEQDSKDSTYSLSSTLTLSKADYEKHKVYACEVTHQGLSSPVTKSFNRGEC | ~1
4 | V6-V6 (CC-2, FLT3 (4G8) x CD3 (humanized UCHT1) bispecific IgGsc antibody) (bispecific antibody, Mouse 4G8 variable regions on human IgG1 constant regions, Fc-attenuated, C-terminal humanized UCHT1 scFv; also called mouse FLT3xCD3 bispecific antibody) heavy: QVQLQQPGAELVKPGASLKLSCKSSGYTFTSYWMHWVRQRPGHGLEWIGEIDPSDSYKDYNQKFKDKATLTVDRSSNTAYMHLSSLTSDDSAVYYCARAITTTPFDFWGQGTTLTVSSASTKGPSVFPLAPSSKSTSGGTAALGCLVKDYFPEPVTVSWNSGALTSGVHTFPAVLQSSGLYSLSSVVTVPSSSLGTQTYICNVNHKPSNTKVDKKVEPKSCDKTHTCPPCPAPPVAGPSVFLFPPKPKDTLMISRTPEVTCVVVGVSHEDPEVKFNWYVDGVEVHNAKTKPREEQYNSTYRVVSVLTVLHQDWLNGKEYKCKVSNKQLPSPIEKTISKAKGQPREPQVYTLPPSRDELTKNQVSLTCLVKGFYPSDIAVEWESNGQPENNYKTTPPVLDSDGSFFLYSKLTVDKSRWQQGNVFSCSVMHEALHNHYTQKSLSLSPGKSGDIQMTQSPSSLSASVGDRVTITCRASQDIRNYLNWYQQKPGKAPKLLIYYTSRLESGVPSRFSGSGSGTDYTLTISSLQPEDFATYYCQQGNTLPWTFGQGTKVEIKGGGGSGGGGSGGGGSEVQLVESGGGLVQPGGSLRLSCAASGYSFTGYTMNWVRQAPGKGLEWVALINPYKGVSTYNQKFKDRFTISVDKSKNTAYLQMNSLRAEDTAVYYCARSGYYGDSDWYFDVWGQGTLVTVSS light: DIVLTQSPATLSVTPGDSVSLSCRASQSISNNLHWYQQKSHESPRLLIKYASQSISGIPSRFSGSGSGTDFTLSINSVETEDFGVYFCQQSNTWPYTFGGGTKLEIKRTVAAPSVFIFPPSDEQLKSGTASVVCLLNNFYPREAKVQWKVDNALQSGNSQESVTEQDSKDSTYSLSSTLTLSKADYEKHKVYACEVTHQGLSSPVTKSFNRGEC | ~1

— EP3623383A1 (Deutsches Krebsforschungszentrum, Stiftung des öffentlichen …, dated 2020)
